How the values were obtained:
[1] = target: F5/8C module of LamA (Paenibacillus β-1,3-glucanase), residues 1636-1793 (Paenibacillus sp. BCRC 17245); assay: cross-linking; protein 0.65 mg/mL, 0.05% glutaraldehyde, room temperature, 1 h, 12% SDS-PAGE
[2] = target: F5/8C module of LamA (Paenibacillus β-1,3-glucanase), residues 1636-1793 (Paenibacillus sp. BCRC 17245); assay: SEC; Sephacryl S-300 gel filtration column (Hiprep 16/60), 10 mM sodium acetate pH 5.8, 10% glycerol; monomer to dimer
[3] = target: F5/8C module of LamA (Paenibacillus β-1,3-glucanase), residues 1636-1793 (Paenibacillus sp. BCRC 17245); assay: AUC; sedimentation velocity, 20°C, 42000 rpm, protein 0.17 mg/mL in 10 mM phosphate pH 7.0, 10% glycerol; c(s) by Sedfit94; monomer to dimer

stoichiometry N [1]: 2
dimer fraction [2]: 15%
stoichiometry N [2]: 2
dimer fraction [3]: 15%
stoichiometry N [3]: 2
Substance: F5/8C module of LamA (Paenibacillus β-1,3-glucanase), residues 1636-1793 (domain or fragment)

Reference: publication PMC2789033
